Measurements as given in patent US20200062804A1 (ADRX, published 2020).
Non-standard residues stand in square brackets, D forms with d. No end group written: not given here.

T1: Nat1 (LTIITLE) (also: TFA salt)
T1 peptide: LTIITLE


Key:
Protein in Human Serum = experiment: protein binding in human serum; method not described
Nat1 (LTIITLE) = target: T1, Nat1 (LTIITLE); experiment: cell-based or functional assay

Molecule	% Protein Binding in Human Serum (Protein in Human Serum)	IC50, Thiofiavin T aggregation assay (Nat1 (LTIITLE))
rrrrrrrrrrpikwrwyrr (peptide)	94%	
rrrrrrrrrrpihlriwrn (peptide)	95%	
rrrrrrrrrrpiyqwyrwq (peptide)	99%	
rrrrrrrrrrpikfrfyhr (peptide)	86%	
rrrrrrrrrgggyqwyrwq (peptide)	89%	
rrrrrrrrrrpihqrqyqr (peptide)	12%	
rrrrrrrrrrpirihyfrr (peptide)	93%	
RRRRRRRRRRPILTRITLE	66%	
[dY][dQ][dW][dY][dR][dW][dQ] [yqwyrwq]	98%	194 nM
[dK][dF][dR][dF][dY][dH][dR] [kfrfyhr]	81%	32 nM
[dR][dF][dY][dY][dH][dR][dR] [rfyyhrr]	91%	76 nM
RRRRRRRRRRPIIRIRHYR	84%	
RRRRRRRRRRPIIRIRHYP	83%	
PRRRRRRRRRRPIIRIRHYRP	89%	
RRRRRRRRRRPIIRIRHYRP	81%	
PRRRRRRRRRRPILRIRYWKP	98%	
PRRRRRRRRRRPITRIRFYRP	89%	
PRRRRRRRRRRPIWTIKLWHP	100%	
[dQ][dQ][dR][dY][dY][dW][dR] [qqryywr]	82%	95 nM
WTRITLK		222 nM
[dF][dW][dR][dW][dH][dR][dA] [fwrwhra]		228 nM
